Assay results taken from publication PMC7616425, “Transient Structural Properties of the Rho GDP-Dissociation Inhibitor” (Angewandte Chemie (International ed. in English), 2024).
Changes are numbered by the printed parent chain.

T1: Alexa647-labeled RhoGDI1 (wt) (bovine, UniProt P19803 1-204, Alexa647 acceptor (site not stated))
T1 construct: also called wildtype GDI; wt RhoGDI
T1 sequence (looked up): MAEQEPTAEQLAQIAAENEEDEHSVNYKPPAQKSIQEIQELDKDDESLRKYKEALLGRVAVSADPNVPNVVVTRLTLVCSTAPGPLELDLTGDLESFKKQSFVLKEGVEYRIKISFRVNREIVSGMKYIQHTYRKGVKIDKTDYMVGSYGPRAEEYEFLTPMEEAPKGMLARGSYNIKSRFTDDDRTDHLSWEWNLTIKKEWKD

B1: full-length RhoGDI1 (residues 1 to 204), bovine (natural protein, UniProt P19803 1-204, looked up)
chain: T1 sequence (looked up)
modifications: triply labeled (2H, 13C, 15N) in the NMR samples
B2: Cy3-labeled, prenylated Cdc42 (natural protein)
chain: not shown
modifications: prenylated (residue not stated); Cy3 donor (site not stated)
notes: Cdc42, Rho family small GTPase
B3: Alexa647-labeled RhoGDI1 L56G (natural protein, bovine, UniProt P19803 1-204, looked up)
chain: T1 sequence (looked up) with L56G
modifications: Alexa647 acceptor (site not stated)

How the values were obtained:
[1] = target: Cdc42, homogeneously geranylgeranylated in vitro (UniProt P60953 1-191, geranylgeranylated in vitro (residue not stated)); assay: cell-based or functional assay
[2] = target: T1, Alexa647-labeled RhoGDI1 (wt); assay: not stated; association rate constant determined independently for wildtype GDI (Figure S17); conditions: both partners purified
[3] = target: B3; assay: FRET or BRET; dissociation assay: 80 nM dual-labeled complex (Alexa647 on RhoGDI1, Cy3 on Cdc42) mixed with excess (5 μM) unlabeled GDI; mono-exponential fits; KD calculated from the measured dissociation rate constant and the association rate constant measured for wt (assumed for the mutants); conditions: both partners purified
[4] = target: T1, Alexa647-labeled RhoGDI1 (wt); assay: as above; conditions: both partners purified

Cdc42, homogeneously geranylgeranylated in vitro, sequence (P60953 whole entry): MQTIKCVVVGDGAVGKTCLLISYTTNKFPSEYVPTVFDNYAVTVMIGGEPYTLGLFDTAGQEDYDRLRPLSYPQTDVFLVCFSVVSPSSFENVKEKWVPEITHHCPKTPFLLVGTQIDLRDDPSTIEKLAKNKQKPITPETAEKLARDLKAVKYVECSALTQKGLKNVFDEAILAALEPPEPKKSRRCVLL

Binder: B1
- inhibition of EDTA-induced Mant-GDP dissociation from prenylated Cdc42 with saturating (5 μM) RhoGDI, against free Cdc42 [1]: 83 fold

Binder: B2
- kon [2]: 5e+06 M⁻¹ s⁻¹
- Kd [3]: 4 nM
- koff [3]: 0.2 s⁻¹
- Kd [4]: 0.09 nM
- koff [4]: 0.0004 s⁻¹

Binder: B3
- acceleration of Mant-GDP dissociation from prenylated Cdc42 with 5 μM RhoGDI L56G, against wt RhoGDI [1]: 5 fold
